Assay [1] deals with IL-4Rα (receptor protein / antigen) (UniProt P24394). Nature of the assay: competition ELISA: IL-4Rα coated, biotin-IL-4 at EC80 mixed with antibody dilutions, OD450; hIgG is the control, the fitted value may be meaningless.
In the next assay the target is IL-4Rα (on TF-1 cells) (UniProt P24394). Nature of the assay: cell-based or functional assay.

hIgG (antibody): the EC50 in assay [1] worked out at 2.04 nM.

In the assay with IL-4Rα (on TF-1 cells), dupilumab (antibody) returned an EC50 of neutralizing IL-4-induced TF-1 cell proliferation of 0.13 nM and an EC50 of neutralizing IL-13-induced TF-1 cell proliferation of 0.178 nM.

As a reminder, the EC50 is the concentration that produces a half-maximal response.

Values taken from patent publication US20230279123A1.
